Experimental findings from paper PMC10598741, “Comparative analysis of the physical properties of murine and human S100A7: Insight into why zinc piracy is mediated by human but not murine S100A7” (The Journal of Biological Chemistry, 2023) are described below.

This data set concerns the molecule itself. Put plainly: crystal structure; Ca2+-loaded mS100A7ΔC at 12 to 14 mg/ml in 20 mM Tris pH 8.0, 100 mM NaCl, 1% glycerol, 1 mM TCEP, 2 mM CaCl2; crystals in 0.1 M potassium thiocyanate, 20% PEG MME 2K, 0.01 M strontium chloride, 20 °C; space group P212121, 1.69 Å.

B1: mouse S100A7 tailless (mS100A7ΔC), deletion mutant mS100A7(1-100) (domain or fragment, UniProt Q6S5I3 1-100, looked up)
chain: MPDTPVEDSLFQIIHCFHHYAAREGDKETLSLEELKALLLDSVPRFMDTLGRRQPYYITELFRAADKNKDNQICFDEFLYILGKLVKDYHLQFHRQLCAH
notes: mouse S100A7 (S100A15a), UniProt Q6S5I3, residues 1-100: truncated at His100, lacks the last eight residues of the C-terminal tail; Gene synthesised and subcloned in pET11a (NdeI/BamHI); no tag is mentioned; Crystallised Ca2+-loaded; residues R95-H100 are poorly defined in the structure; also called murine S100A7ΔC; S100A15a; source: E. coli BL21 RIL, purified (supernatant heated to 85 °C, DEAE …)
For the protein B1, the binding result is on record as “binds”.
